From patent publication US20230144436A1, “MUSCLE TARGETING COMPLEXES AND USES THEREOF FOR TREATING MYOTONIC DYSTROPHY” (Dyne Therapeutics, Inc., priority 2020, published 2023)
pKd: −log10 of the molar value.

Target: human transferrin receptor 1 (human) (UniProt P02786)
Experiment: Carterra LSA SPR array, IgG captured on anti-IgG lawn, hTfR1 as analyte, 25 C, 1:1 Langmuir fit

Chain of human transferrin receptor 1 (human) (P02786 89-760 limits assumed): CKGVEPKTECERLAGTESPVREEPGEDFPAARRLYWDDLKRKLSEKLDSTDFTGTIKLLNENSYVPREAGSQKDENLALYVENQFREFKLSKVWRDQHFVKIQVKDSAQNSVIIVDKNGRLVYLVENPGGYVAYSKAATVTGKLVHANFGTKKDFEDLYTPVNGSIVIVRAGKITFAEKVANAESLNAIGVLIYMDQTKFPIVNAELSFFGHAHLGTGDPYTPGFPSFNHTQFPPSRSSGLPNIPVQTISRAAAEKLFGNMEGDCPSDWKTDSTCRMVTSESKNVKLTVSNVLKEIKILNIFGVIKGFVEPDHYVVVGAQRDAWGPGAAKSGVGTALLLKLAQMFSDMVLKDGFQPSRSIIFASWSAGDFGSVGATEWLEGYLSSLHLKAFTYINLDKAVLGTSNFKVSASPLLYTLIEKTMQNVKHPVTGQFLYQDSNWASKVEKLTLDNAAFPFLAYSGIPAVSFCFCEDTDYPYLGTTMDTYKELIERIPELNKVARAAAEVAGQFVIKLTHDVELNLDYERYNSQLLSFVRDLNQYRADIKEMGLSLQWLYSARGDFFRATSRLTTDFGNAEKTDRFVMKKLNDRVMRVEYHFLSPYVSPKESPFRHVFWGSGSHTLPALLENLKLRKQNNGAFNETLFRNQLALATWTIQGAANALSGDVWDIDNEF

pKd: 9.27 | kon: 774000 M⁻¹ s⁻¹
Substance: OKT9 (antibody)
